Laboratory results from the supplement of paper PMC10567573.
± gives the standard deviation.

Test: protein stability index of a GFP-peptide fusion (GPS, HEK-293T) (PSI 1-6); higher = more stable
[1] = treatment: DMSO, c terminus: a fixed tail appended
[2] = treatment: MLN4924 1 uM, 8 h, c terminus: a fixed tail appended
[3] = treatment: DMSO, c terminus: native
[4] = treatment: MLN4924 1 uM, 8 h, c terminus: native
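Further: 24-mer peptide tiles fused after GFP, lentivirally expressed, FACS-sorted into six equal bins by GFP/DsRed ratio, decoded by Illumina sequencing, PSI is the read-weighted mean bin number.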

Sequence	protein stability index [1]	protein stability index [2]	protein stability index [3]	protein stability index [4]
DTQYGSSVDIWAIGCVFAELLTGQ [CDKL4]	2.8 ± 0.59	2.37 ± 0.46	–	–
DTRLRYSFFVPRPTPSTPRPTPQD [ADAMTS4]	3.64 ± 0.15	3.74 ± 0.089	–	–
DVDEDEPGGLVGSADVVSPSGHSD [PPFIA4]	5.66 ± 0.36	5.47 ± 0.12	–	–
DVEAWFNTQTEELNQQVVSSSEQL [KRT36]	4.65 ± 0.22	4.73 ± 0.15	–	–
DVIGDEICCWSFYGQGRKIAEVCC [KCTD10]	2.42 ± 0.92	2.33 ± 0.54	–	–
DVNEQVMQVLGPEDLQSIIYKLEE [CEP70]	3.7 ± 0.21	3.7 ± 0.24	–	–
DWYQRQRPSEIKDYSPYFKTIEDL [KRT16]	2.74 ± 0.28	2.9 ± 0.32	–	–
DYPYSPPAFRFLTKMWHPNIYETG [CDC34]	2.17 ± 0.62	1.94 ± 0.28	–	–
DYQPTQAGRLMRPSVKYLSHPRVQ [RNF180]	3.34 ± 0.22	3.4 ± 0.12	–	–
EAALNSKDAALATALGDKKSLEGD [LMNB1]	5.52 ± 0.25	5.5 ± 0.078	–	–
EAEEEELRAELTKVEEEIVTLRQV [TPD52L2]	4.25 ± 0.26	4.63 ± 0.51	–	–
EAEVTILFYFFLYQYCSIHCSDRK [CSTF3]	2.57 ± 0.56	2.53 ± 0.15	–	–
EAGGRFVAFSGEGQSLRKKGRKP [UFD1]	–	–	2.75 ± 0.78	3.29 ± 0.79
EAQRASFLQNAVLAYVQASPVRTL [LRRC45]	2.41 ± 0.29	2.3 ± 0.26	–	–
EDLEDLGAVAPPVSGDLTKEDIDL [NFE2L1]	5.71 ± 0.4	5.3 ± 0.76	–	–
EDPVPGMLFFLPPGQHLSDYSQLN [FBXO34]	3.03 ± 0.35	3.11 ± 0.38	–	–
EDSLAALSSVPSEAQISDPFAPEP [SNAP91]	5.33 ± 0.34	5.34 ± 0.18	–	–
EEEKEPLAVDSWWLDPGHTAVAQA [SERTAD1]	4.8 ± 0.27	4.88 ± 0.23	–	–
EEEKKKMEESKAKFENLCKLMKEI [HSP90AB1]	4.43 ± 0.36	4.58 ± 0.49	–	–
EEEQDILQRLRENAAHLGDKRRDL [TRIM39]	5.06 ± 0.26	4.97 ± 0.059	–	–
EERAAPVLSCEAATQTERRLDLAA [FAM189A2]	5.05 ± 0.28	4.99 ± 0.12	–	–
EERRVVHASGDASYSAGDSGDAAA [EPB41L3]	5.49 ± 0.32	5.42 ± 0.17	–	–

Sequence	protein stability index [1]	protein stability index [2]	protein stability index [3]	protein stability index [4]
EESEEERGLEPGKGRHHRGRGGEP [CHGB]	5.59 ± 0.17	5.51 ± 0.25	–	–
EESKEPKEEKQRRRCKPKKPTRRD [GNAS]	5.42 ± 0.11	5.44 ± 0.16	–	–
EFHQRRSEIIQITTGSKELDKLLQ [RAD51]	2.93 ± 0.2	3.03 ± 0.51	–	–
EGEEDATSEVDKRRTRPRHHHGRS [CHGB]	5.35 ± 0.47	5.33 ± 0.28	–	–
EGGTAVTGGQTVVNPWIIIGGVAT [SEPHS2]	2.68 ± 0.29	2.77 ± 0.43	–	–
EGKMYTARKGKGAFCNGQKLQVSQ [IMPA1]	3.52 ± 0.33	3.93 ± 0.32	–	–
EGKNMSFVNDLTVTQDGRKIYFTD [APMAP]	3.98 ± 0.38	3.91 ± 0.58	–	–
EGLELTEQTFSPAKSLSFRKGELV [ADD1]	4 ± 0.39	4.2 ± 0.34	–	–
EGLGQSLGNFKDDLLNVCMRHVEK [TRIM29]	3.62 ± 0.27	3.78 ± 0.27	–	–
EGLLRFSSWPFSIQDVVQPLTLQV [AUP1]	2.85 ± 0.76	2.98 ± 1	–	–
EGYCQAQAPIAAVLLMHMPAEQAF [TBC1D10A]	2.33 ± 0.49	2.03 ± 0.27	–	–
EIALAPYQHLEEDMKSLKQVLEMK [MTUS2]	3.62 ± 0.17	3.65 ± 0.49	–	–
EIKDVLVWTNDQVVHWVQSIGLRD [PPFIA4]	–	2.25 ± 0.37	–	–
EKMMQEAEKLKAQGEYSRKLEERF [CCDC89]	3.48 ± 0.24	3.56 ± 0.52	–	–
EKNQVQLGKLEATIKSLSAELLKA [SASS6]	2.6 ± 0.45	2.54 ± 0.42	–	–
EKSGSAEPFVLPASSVESTLPVLE [FBXO34]	5.08 ± 0.39	5.01 ± 0.34	–	–
ELALALKGNTTLQQLDLRWNNVGL [LRRC45]	2.19 ± 0.42	2.07 ± 0.35	–	–
ELEKNFSNFPRQYFALRKILKQLI [TRIM39]	2.58 ± 0.92	2.85 ± 1.3	–	–
ELEQQIWKERDEYITKVSEEVTRL [TRIM15]	3.94 ± 0.21	3.95 ± 0.27	–	–
ELERFVNLHSLALDFCDFTAEMAR [FBXO33]	2.23 ± 0.11	2.61 ± 0.29	–	–
ELESIRQDRDALHMEGLIVRERIL [FEM1B]	3.44 ± 0.27	3.52 ± 0.36	–	–
ELRRLFLVQDLVDSLKFAVLMWLL [RTN1]	2.18 ± 0.56	2.2 ± 0.29	–	–

Sequence	protein stability index [1]	protein stability index [2]	protein stability index [3]	protein stability index [4]
ELSPLALGRFSLTPAEGDTEEDDG [CDC25B]	5.44 ± 0.18	5.44 ± 0.43	–	–
ELVENIKSVLKSDEEHMEEAITSA [FAM189A2]	3.64 ± 0.16	3.79 ± 0.41	–	–
ELVLVSAGFDAARGDPLGGCQVSP [HDAC6]	2.89 ± 0.27	3.14 ± 0.35	–	–
EMHFLENAKKLSMYGVDLHHAKDS [EPB41L3]	3.03 ± 0.67	2.8 ± 0.25	–	–
EMHTALMEACMDGHVEVARLLLDS [ANKRD17]	2.38 ± 0.22	2.55 ± 0.28	–	–
EMMRFIYTGRAPNLDKMADNLLAA [SPOPL]	2.42 ± 0.29	2.01 ± 0.19	–	–
ENTAETITRVLYEVFIEWGISAKV [ZBED1]	2.82 ± 0.088	2.78 ± 0.72	–	–
EQGFQEGVPNASVIMQVPERIVVA [MFF]	3.76 ± 0.35	3.83 ± 0.042	–	–
ERFIQYLASRNTLFNLSNFLDKSG [SNAP91]	2.4 ± 0.26	2.53 ± 0.61	–	–
ERHKLKRQDADAWTLYKILDSCKQ [SMG5]	2.75 ± 0.21	2.9 ± 0.36	–	–
ERHSDLPPLNPTSWWADLRALARN [SPNS1]	3.34 ± 0.5	3.34 ± 0.38	–	–
ERLAHSRAAAAAAVAAATAAVEGS [KCNA4]	4.38 ± 0.2	4.25 ± 0.29	–	–
ERSARYQYFVVDPMAEYNMPQYIL [PTPRD]	2.01 ± 0.28	2.74 ± 0.99	–	–
ERSSFYSCAGGRLFQQSCPTGLVF [CHIT1]	1.99 ± 0.15	2.13 ± 0.18	–	–
ESASSQSGCLRISIQKLSNESRYM [NECAB1]	2.76 ± 0.2	2.78 ± 0.31	–	–
ESEPPAPNIRNMAPNSLSAPTMLH [TRAF3IP2]	4.54 ± 0.24	4.37 ± 0.34	–	–
ESGLRSLRLFQKLEENGDLYLAV [WDR41]	–	–	2.08 ± 0.2	2.16 ± 0.36
ESGTKGLFAGFLPRIIKAAPSCAI [SLC25A39]	2.24 ± 0.12	2.47 ± 0.28	–	–
ESHEVPGTLSMGVPQIFKYGETCF [ZNF24]	2.74 ± 0.39	2.89 ± 0.73	–	–
ESLREELICLKKNHEEEVNTLRSQ [KRT34]	4.91 ± 0.23	5.04 ± 0.23	–	–
ESRAPSPLLHKDSASLEVVKKDHV [CBY2]	5.18 ± 0.3	5.27 ± 0.24	–	–
